± gives the uncertainty stated by the source.
Assay: protein stability index of a GFP-peptide fusion (yeast GPS) (PSI 1-4); higher = more stable; sorted into four equal gates, so the index is relative within each strain
Procedure, shortened: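 Tiled 17-residue yeast protein peptides were fused downstream of GFP in a plasmid that also expresses Cherry, and the pooled library was carried in yeast. Mid-log cultures in leucine-free medium were sorted into four equal gates by GFP/Cherry fluorescence ratio, and plasmids from each gate were PCR-amplified and Illumina-sequenced, with reads assigned to strains by barcodes. The protein stability index for each peptide was each gate's read frequency times its gate number, summed.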

Row | Sequence | protein stability index (doa10∆) | protein stability index (pdr5∆) | protein stability index (san1∆) | protein stability index (ubr1∆)
1 | MVNTQQPIVTGTSVISM [PRE4] | 2.1 ± 0.26 | 2.69 ± 0.23 | 1.95 ± 0.14 | 1.96 ± 0.2
2 | MVPKRSTIITKAINQEL [YCS4] | 1.39 ± 0.1 | 1.88 ± 0.062 | 1.58 ± 0.09 | 2.24 ± 0.068
3 | NAEKTGKRQVLIRPSSK [RPS22A] | 3.28 ± 0.16 | 3.26 ± 0.12 | 3.13 ± 0.14 | 3.03 ± 0.075
4 | NAEKTGKRQVLLRPSSK [RPS22B] | 3.14 ± 0.064 | 2.93 ± 0.055 | 3.24 ± 0.046 | 2.85 ± 0.038
5 | NAGTDIVMEDHGVLQGT [MED1] | 3.11 ± 0.072 | 3.06 ± 0.1 | 3.08 ± 0.085 | 3 ± 0.067
6 | NAIQTEVYGINEESTNE [SIR4] |  | 3.03 ± 0.3 | 2.9 ± 0.25 | 
7 | NAKRSHMMKRWGYQMVW [POP1] | 1.97 ± 0.052 | 2.38 ± 0.056 | 2.69 ± 0.077 | 2.67 ± 0.055
8 | NALWILVDLVSHFSPDI [ITC1] | 1.55 ± 0.07 | 1.56 ± 0.079 | 1.67 ± 0.11 | 1.95 ± 0.051
9 | NANTVFSERAAMFAALQ [SWI1] | 2.31 ± 0.049 | 2.32 ± 0.043 | 2.4 ± 0.055 | 2.38 ± 0.032
10 | NASDALKGRVVEVCLAD [RPS1B] | 3.34 ± 0.069 | 3.33 ± 0.057 | 3.12 ± 0.051 | 3.03 ± 0.054
11 | NASLTIEDEDEPFNAGI [SMC1] | 3.29 ± 0.13 | 3.15 ± 0.12 | 3.39 ± 0.083 | 3.23 ± 0.085
12 | NATVVDSFKYEPLAPGN [YLR335W/NUP2] | 2.95 ± 0.057 | 3.02 ± 0.054 | 2.98 ± 0.053 | 2.94 ± 0.051
13 | NCVNDVLEFCKDYEAKT [POP1] | 3.2 ± 0.075 | 3.45 ± 0.083 | 3.14 ± 0.072 | 3.32 ± 0.051
14 | NDAMAGGFTAYGGADYG [RPO21] | 1.78 ± 0.083 | 1.91 ± 0.066 | 1.92 ± 0.1 | 1.86 ± 0.074
15 | NDDKKTEPDKPAFSFNS [YJL041W/NSP1] | 2.89 ± 0.047 | 3.12 ± 0.039 | 3.07 ± 0.032 | 3.202 ± 0.029
16 | NDENDDEFYINVDKNLN [RPN14] | 2.96 ± 0.19 | 2.72 ± 0.12 | 2.94 ± 0.11 | 3.05 ± 0.12
17 | NDFNDLNIDWSTTGDNG [MED2] | 2.84 ± 0.05 | 2.86 ± 0.051 | 2.84 ± 0.046 | 2.73 ± 0.042
18 | NDGNNRTNNVPMIKAEE [NUT1] | 3.05 ± 0.17 | 3.31 ± 0.14 | 2.65 ± 0.17 | 3.77 ± 0.16
19 | NDIAGQPQALQKSGRPV [RPO21] | 2.93 ± 0.087 | 3.16 ± 0.12 | 2.84 ± 0.16 | 2.96 ± 0.073
20 | NDITNLQLSKTPLSIKI [SRB8] | 2.58 ± 0.062 | 2.52 ± 0.069 | 2.81 ± 0.056 | 2.77 ± 0.051
21 | NDKSEVLKVYSMINNSN [SRB8] | 2.9 ± 0.077 | 2.91 ± 0.07 | 2.86 ± 0.075 | 2.63 ± 0.071
22 | NDPEILKKIASIPNLFP [SWI1] | 2.36 ± 0.049 | 2.19 ± 0.036 | 2.36 ± 0.058 | 2.53 ± 0.035
23 | NDWQMLEMLKPCVEDGF [RPB2] | 2.79 ± 0.09 | 3.22 ± 0.21 | 3.06 ± 0.12 | 2.68 ± 0.099
24 | NEETFTVPELEIPTQIY [ARP9] | 2.7 ± 0.065 | 2.77 ± 0.059 | 2.48 ± 0.064 | 2.92 ± 0.063
25 | NEIIRSLSDEVMRNEIR [SIR4] | 2.64 ± 0.058 | 2.1 ± 0.048 | 2.52 ± 0.068 | 2.39 ± 0.049
26 | NEKMQLLKDIFANNLKS [SIR4] | 2.28 ± 0.048 | 2.41 ± 0.051 | 1.95 ± 0.083 | 2.19 ± 0.048
27 | NELLLPSELNQLKMVNE [RPC82] | 3.14 ± 0.12 | 2.94 ± 0.13 | 3.25 ± 0.13 | 

Row | Sequence | protein stability index (doa10∆) | protein stability index (pdr5∆) | protein stability index (san1∆) | protein stability index (ubr1∆)
28 | NELTDAIALAVRLGEED [RPN1] | 2.98 ± 0.096 | 3.27 ± 0.096 |  | 2.7 ± 0.095
29 | NENDSQAIITERLVEFS [YIL149C/MLP2] | 3.2 ± 0.095 | 3.15 ± 0.085 | 2.83 ± 0.087 | 2.87 ± 0.051
30 | NENFRLVYDVKGRFAVH [RPS4A] | 3.41 ± 0.14 | 2.55 ± 0.17 | 3.32 ± 0.12 | 3.25 ± 0.13
31 | NENNNNSSEKNNNNNNN [MED2] | 2.91 ± 0.066 | 2.96 ± 0.065 | 3.04 ± 0.071 | 2.95 ± 0.07
32 | NENPINKIMTNQINSFW [NUT1] | 2.5 ± 0.065 | 2.66 ± 0.064 | 2.43 ± 0.054 | 2.9 ± 0.042
33 | NENRNTGAGVDVNTNAN [SNF11] | 3.11 ± 0.062 | 3.42 ± 0.06 | 3.15 ± 0.039 | 3.36 ± 0.054
34 | NERRKDLAERASELDES [SMC3] | 2.13 ± 0.058 | 2.79 ± 0.06 | 1.98 ± 0.11 | 2.97 ± 0.054
35 | NESFNRRISSMPGGYFH [YAR002W/NUP60] | 2.88 ± 0.09 | 3.17 ± 0.089 | 3.07 ± 0.099 | 3.04 ± 0.043
36 | NEVIDKLKNENTDLKDI [PCI8] | 2.87 ± 0.066 | 3.04 ± 0.053 | 3.01 ± 0.048 | 3.13 ± 0.041
37 | NFASGDNNTASNMLGSN [RPB3] | 3 ± 0.12 | 2.98 ± 0.089 | 3 ± 0.12 | 3.24 ± 0.21
38 | NFEYDLSEYDAIQKKDN [YOR098C/NUP1] | 2.9 ± 0.2 | 3.23 ± 0.13 | 2.15 ± 0.26 | 3.23 ± 0.064
39 | NFILEVFGTIIPKISDY [YJL039C/NUP192] | 2.05 ± 0.17 | 1.68 ± 0.22 |  | 1.61 ± 0.26
40 | NFIVHSPMLKRIKITAN [GRR1] | 1.48 ± 0.072 | 1.2 ± 0.075 | 1.29 ± 0.13 | 1.19 ± 0.061
41 | NFLSKIRNINVQDALLT [SNF2] | 1.63 ± 0.047 | 1.99 ± 0.054 | 1.77 ± 0.083 | 1.54 ± 0.032
42 | NFYIQYDPKDGLYKMME [AAR2] |  | 2.21 ± 0.14 |  | 
43 | NGGEDTSVENEGPVANL [REC8] | 3.37 ± 0.089 | 3.45 ± 0.094 | 3.06 ± 0.11 | 3.16 ± 0.058
44 | NGILPDDELMNWRRLSG [SSN2] | 2.97 ± 0.087 | 2.9 ± 0.073 | 2.98 ± 0.11 | 3.19 ± 0.091
45 | NGMFCQVPSSLIVRAKN [RRP4] | 2.07 ± 0.064 | 2.5 ± 0.12 | 2.31 ± 0.092 | 2.27 ± 0.082
46 | NGQPLNQNFSLTFQPQQ [GRR1] | 3.09 ± 0.051 | 3.12 ± 0.047 | 3.04 ± 0.051 | 3.01 ± 0.043
47 | NGQYAAFVKDMQVYLVP [RPC37] | 2.67 ± 0.12 | 1.52 ± 0.089 | 1.4 ± 0.073 | 1.83 ± 0.12
48 | NHFIFNVESAGAMTPEE [RPC40] | 2.01 ± 0.059 | 2.02 ± 0.061 | 2.4 ± 0.062 | 2.47 ± 0.045
49 | NHKIIARVKAFDRHCNM [SMD2] | 1.7 ± 0.07 | 1.72 ± 0.08 | 2.1 ± 0.086 | 1.93 ± 0.058
50 | NHPELQGITRNVVNYLS [RPC17] | 2.02 ± 0.062 | 1.83 ± 0.061 | 2.19 ± 0.11 | 2.47 ± 0.062
51 | NHSNNDIPTIADEHFWA [BRN1] | 3.38 ± 0.099 | 3.11 ± 0.077 | 3.2 ± 0.059 | 3.24 ± 0.036
52 | NHVKQFYERLDKSTTQL [MED11] | 2.47 ± 0.061 | 2.64 ± 0.081 | 2.5 ± 0.052 | 2.62 ± 0.083
53 | NHVMPLKPVDKLKPMNI [SIN4] | 2.84 ± 0.1 | 2.93 ± 0.083 | 2.83 ± 0.087 | 2.94 ± 0.094

Source: the supplement of paper PMC9732359
